Measured values: IntAct's records for PubMed 28838205

B1: WW domain-binding protein 4 (Homo sapiens), O75554 (parent)
chain: MADYWKSQPKKFCDYCKCWIADNRPSVEFHERGKNHKENVAKRISEIKQKSLDKAKEEEKASKEFAAMEAAALKAYQEDLKRLGLESEILEPSITPVTSTIPPTSTSNQQKEKKEKKKRKKDPSKGRWVEGITSEGYHYYYDLISGASQWEKPEGFQGDLKKTAVKTVWVEGLSEDGFTYYYNTETGESRWEKPDDFIPHTSDLPSSKVNENSLGTLDESKSSDSHSDSDGEQEAEEGGVSTETEKPKIKFKEKNKNSDGGSDPETQKEKSIQKQNSLGSNEEKSKTLKKSNPYGEWQEIKQEVESHEEVDLELPSTENEYVSTSEADGGGEPKVVFKEKTVTSLGVMADGVAPVFKKRRTENGKSRNLRQRGDDQ
partner: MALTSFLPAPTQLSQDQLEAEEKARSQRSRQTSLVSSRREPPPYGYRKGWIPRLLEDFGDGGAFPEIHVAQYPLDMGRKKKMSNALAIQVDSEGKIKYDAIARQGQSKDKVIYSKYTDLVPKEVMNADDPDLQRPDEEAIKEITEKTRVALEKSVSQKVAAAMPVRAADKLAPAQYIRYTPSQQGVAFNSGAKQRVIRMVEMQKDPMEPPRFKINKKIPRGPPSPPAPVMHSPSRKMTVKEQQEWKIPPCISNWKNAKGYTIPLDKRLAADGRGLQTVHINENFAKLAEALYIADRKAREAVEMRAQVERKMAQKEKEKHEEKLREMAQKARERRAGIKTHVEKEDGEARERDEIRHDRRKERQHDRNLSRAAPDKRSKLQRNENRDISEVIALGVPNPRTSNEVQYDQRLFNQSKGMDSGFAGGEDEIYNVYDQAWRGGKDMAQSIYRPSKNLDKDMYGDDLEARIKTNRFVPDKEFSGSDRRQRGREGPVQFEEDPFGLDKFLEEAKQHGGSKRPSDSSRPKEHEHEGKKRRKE
B2: WW domain-binding protein 4 (Homo sapiens), O75554 (parent)
chain: B1 chain
partner: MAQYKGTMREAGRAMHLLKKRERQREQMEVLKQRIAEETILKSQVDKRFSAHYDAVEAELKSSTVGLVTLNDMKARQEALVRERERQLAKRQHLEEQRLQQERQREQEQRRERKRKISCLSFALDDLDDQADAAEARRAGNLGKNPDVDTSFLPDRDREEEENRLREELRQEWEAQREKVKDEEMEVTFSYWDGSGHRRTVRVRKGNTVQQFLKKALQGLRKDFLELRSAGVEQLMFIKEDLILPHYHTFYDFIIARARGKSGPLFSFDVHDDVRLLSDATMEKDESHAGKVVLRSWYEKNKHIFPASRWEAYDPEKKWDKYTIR
B3: WW domain-binding protein 4 (Homo sapiens), O75554 (parent)
chain: B1 chain
B4: WW domain-binding protein 4 (Homo sapiens), O75554 (parent)
chain: B1 chain
partner: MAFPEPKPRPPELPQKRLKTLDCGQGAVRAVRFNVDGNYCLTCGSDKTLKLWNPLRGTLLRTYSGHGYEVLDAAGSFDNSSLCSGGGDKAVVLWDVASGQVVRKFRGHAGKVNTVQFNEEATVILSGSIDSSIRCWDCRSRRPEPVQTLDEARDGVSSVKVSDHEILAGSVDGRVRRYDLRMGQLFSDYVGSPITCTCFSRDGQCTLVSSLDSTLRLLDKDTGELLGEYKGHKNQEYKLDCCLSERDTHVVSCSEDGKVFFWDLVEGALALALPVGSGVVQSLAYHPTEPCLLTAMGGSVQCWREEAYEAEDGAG

Variants of: B1
Conditions: with snw1_human SNW1, Q13573

Variant	effect of a mutation on the interaction
W150A	with no effect

Variants of: B2
Conditions: with fa50b_human FAM50B

Variant	effect of a mutation on the interaction
W150A	with no effect

Variants of: B3
Conditions: with u520_human SNRNP200, O75643
Sequence of u520_human SNRNP200, O75643 (O75643 whole entry): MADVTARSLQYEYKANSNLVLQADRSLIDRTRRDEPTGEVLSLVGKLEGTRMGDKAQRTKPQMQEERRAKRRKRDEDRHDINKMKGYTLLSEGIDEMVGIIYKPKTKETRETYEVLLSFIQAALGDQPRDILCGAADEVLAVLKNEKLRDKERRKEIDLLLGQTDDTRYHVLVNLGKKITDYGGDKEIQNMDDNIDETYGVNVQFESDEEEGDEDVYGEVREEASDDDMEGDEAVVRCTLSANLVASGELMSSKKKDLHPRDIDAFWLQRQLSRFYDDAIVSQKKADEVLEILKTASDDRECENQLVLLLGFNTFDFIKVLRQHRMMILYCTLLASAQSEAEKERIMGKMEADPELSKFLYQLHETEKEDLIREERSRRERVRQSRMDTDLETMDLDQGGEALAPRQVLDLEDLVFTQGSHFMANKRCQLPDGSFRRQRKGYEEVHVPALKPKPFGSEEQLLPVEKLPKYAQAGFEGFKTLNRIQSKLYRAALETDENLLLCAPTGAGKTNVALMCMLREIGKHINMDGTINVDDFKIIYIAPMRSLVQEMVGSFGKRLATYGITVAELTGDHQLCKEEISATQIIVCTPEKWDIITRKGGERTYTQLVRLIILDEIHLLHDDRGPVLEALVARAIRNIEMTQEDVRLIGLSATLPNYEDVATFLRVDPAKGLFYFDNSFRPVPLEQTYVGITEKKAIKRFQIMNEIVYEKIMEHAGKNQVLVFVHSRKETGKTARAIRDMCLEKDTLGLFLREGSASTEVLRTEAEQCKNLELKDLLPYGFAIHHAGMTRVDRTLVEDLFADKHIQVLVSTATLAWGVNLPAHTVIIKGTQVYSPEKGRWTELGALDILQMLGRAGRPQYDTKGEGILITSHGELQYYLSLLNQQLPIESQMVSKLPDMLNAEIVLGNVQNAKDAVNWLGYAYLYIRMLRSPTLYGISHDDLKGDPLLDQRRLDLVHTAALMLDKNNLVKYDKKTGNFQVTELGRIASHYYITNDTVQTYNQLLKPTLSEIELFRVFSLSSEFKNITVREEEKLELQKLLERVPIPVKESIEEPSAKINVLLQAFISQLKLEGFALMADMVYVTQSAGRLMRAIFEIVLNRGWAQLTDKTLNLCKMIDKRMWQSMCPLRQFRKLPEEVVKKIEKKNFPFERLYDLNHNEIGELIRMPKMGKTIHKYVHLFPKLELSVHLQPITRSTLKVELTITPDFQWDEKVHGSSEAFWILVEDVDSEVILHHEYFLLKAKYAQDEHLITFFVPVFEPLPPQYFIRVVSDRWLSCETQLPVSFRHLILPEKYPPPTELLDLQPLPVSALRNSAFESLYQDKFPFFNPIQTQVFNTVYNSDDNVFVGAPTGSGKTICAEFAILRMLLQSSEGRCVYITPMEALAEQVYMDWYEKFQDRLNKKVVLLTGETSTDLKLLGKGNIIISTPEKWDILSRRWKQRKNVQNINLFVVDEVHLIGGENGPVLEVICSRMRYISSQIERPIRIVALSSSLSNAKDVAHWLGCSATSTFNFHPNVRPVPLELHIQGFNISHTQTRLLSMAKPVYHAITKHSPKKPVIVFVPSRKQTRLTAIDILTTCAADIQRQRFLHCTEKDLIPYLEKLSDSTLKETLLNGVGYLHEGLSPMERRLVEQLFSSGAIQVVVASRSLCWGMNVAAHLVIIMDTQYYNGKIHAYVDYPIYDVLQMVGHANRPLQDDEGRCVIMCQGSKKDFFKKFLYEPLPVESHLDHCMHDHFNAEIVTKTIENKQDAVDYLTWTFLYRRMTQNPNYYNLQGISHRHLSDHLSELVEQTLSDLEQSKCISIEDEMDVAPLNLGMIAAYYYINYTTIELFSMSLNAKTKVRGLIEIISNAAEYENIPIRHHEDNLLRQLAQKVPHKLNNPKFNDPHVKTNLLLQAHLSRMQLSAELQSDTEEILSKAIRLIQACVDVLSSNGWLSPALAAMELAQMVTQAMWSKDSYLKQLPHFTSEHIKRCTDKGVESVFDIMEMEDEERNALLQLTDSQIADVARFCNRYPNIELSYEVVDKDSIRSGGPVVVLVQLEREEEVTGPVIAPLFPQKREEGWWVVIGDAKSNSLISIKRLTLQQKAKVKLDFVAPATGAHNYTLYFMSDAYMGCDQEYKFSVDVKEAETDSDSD

Variant	effect of a mutation on the interaction
W150A	with no effect

Variants of: B3
Conditions: with ppih_human PPIH

Variant	effect of a mutation on the interaction
W150A	with no effect

Variants of: B3
Conditions: with sf3b2_human SF3B2, Q13435
Sequence of sf3b2_human SF3B2, Q13435 (Q13435 whole entry): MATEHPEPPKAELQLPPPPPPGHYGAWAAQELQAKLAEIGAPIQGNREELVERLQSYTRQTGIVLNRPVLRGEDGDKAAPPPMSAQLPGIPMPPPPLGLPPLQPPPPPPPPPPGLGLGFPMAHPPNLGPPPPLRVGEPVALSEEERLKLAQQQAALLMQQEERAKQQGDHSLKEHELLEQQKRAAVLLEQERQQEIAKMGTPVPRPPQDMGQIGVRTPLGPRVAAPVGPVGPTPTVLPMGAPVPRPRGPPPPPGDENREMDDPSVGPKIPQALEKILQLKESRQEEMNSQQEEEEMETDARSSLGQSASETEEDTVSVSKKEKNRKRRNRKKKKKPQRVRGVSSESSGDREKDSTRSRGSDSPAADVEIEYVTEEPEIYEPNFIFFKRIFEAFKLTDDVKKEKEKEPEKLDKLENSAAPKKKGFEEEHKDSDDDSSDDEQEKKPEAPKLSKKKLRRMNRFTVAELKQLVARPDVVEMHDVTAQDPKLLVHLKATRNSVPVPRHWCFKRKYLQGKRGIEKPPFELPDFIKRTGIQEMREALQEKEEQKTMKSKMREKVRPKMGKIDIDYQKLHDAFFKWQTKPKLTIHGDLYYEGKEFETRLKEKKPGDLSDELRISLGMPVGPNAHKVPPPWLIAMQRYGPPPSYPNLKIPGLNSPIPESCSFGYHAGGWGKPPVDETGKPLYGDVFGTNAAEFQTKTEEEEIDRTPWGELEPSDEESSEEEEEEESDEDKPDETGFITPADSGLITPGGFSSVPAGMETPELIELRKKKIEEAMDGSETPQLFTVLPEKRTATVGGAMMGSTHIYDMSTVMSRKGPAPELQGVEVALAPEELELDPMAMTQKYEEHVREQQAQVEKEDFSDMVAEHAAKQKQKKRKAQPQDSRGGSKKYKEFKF

Variant	effect of a mutation on the interaction
W150A	with no effect

Variants of: B3
Conditions: with zc21a_human ZC2HC1A

Variant	effect of a mutation on the interaction
W150A	with no effect

Variants of: B3
Conditions: with u520_human SNRNP200, O75643
Remark: another data set of the same source

Variant	effect of a mutation on the interaction
K358A;R360A	decreasing interaction strength
K357E;R359E	decreasing interaction strength

Variants of: B3
Conditions: with u520_human SNRNP200, O75643
Remark: another data set of the same source

Variant	effect of a mutation on the interaction
K357E;R359E	with no effect

Variants of: B4
Conditions: with wdr83_human WDR83, Q9BRX9

Variant	effect of a mutation on the interaction
W150A	with no effect
